Data as given in patent US20210054076A1 (Chugai, published 2021).

How the values were obtained:
human CLDN6 [1] = target: T1, human CLDN6 (human, UniProt P56747 1-220); test: cell-based or functional assay
T1 sequence: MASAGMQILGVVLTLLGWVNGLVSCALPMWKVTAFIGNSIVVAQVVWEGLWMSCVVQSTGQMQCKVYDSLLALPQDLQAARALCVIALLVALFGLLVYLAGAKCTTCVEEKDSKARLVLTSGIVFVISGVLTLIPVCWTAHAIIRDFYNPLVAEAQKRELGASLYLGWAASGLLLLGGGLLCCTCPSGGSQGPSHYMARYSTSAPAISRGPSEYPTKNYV

human CLDN6 [2] = target: T1, human CLDN6; test: FACS on Ba/F3 transfectant, antibody 20 micro g/ml, FITC anti-human IgG
Procedure: (§1) To evaluate the binding activity and specificity of the generated CLDN6-TRABs against CLDN6 and other Claudin family antigens, FACS analysis was conducted as follows. Ba/F3 transfectants stably express a kind of protein selected from human CLDN3 (hCLDN3), human CLDN4 (hCLDN4), human CLDN6 (hCLDN6), human CLDN9 (hCLDN9), mouse CLDN3 (mCLDN3), mouse CLDN4 (mCLDN4) and mouse CLDN6 (mCLDN6), were generated using similar method described in WO2008/087978, and named BaF3_hCLDN3, BaF3_hCLDN4, BaF3_hCLDN6, BaF3_hCLDN9, BaF3 mCLDN3, BaF3 mCLDN4, BaF3 mCLDN6, respectively. Each of the CLDN6-TRABs (CH01/CD3, CH02/CD3, CH03/CD3, CH04/CD3) was incubated with the Ba/F3 transfectants at an antibody concentration of 20 micro g/ml in FACS buffer (0.5% BSA containing autoMACS Rinsing Solution, Miltenyl Biotec). Binding activities of each CLDN6-TRAB to the Claudin family proteins (hCLDN3, hCLDN4, hCLDN6, hCLDN9, mCLDN3, mCLDN4, mCLDN6) were examined by incubation of FITC-conjugated goat anti human IgG (BeckmanCoulter), represented as Geo-mean value. Sample processing was conducted on FACSVerse (BD).
(§2) Claudin family proteins have two extracellular domains. The sequence of the first extracellular domain in human CLDN9 is almost the same compared with the first extracellular domain of human CLDN6. For the second extracellular domain of human CLDN9, there are only two amino acids different from the ones at their corresponding positions in human CLDN6 (FIG. 2). The glutamine at position 156 of human Claudin 6 (position 156 in the sequence shown in SEQ ID NO: 44 or 45) was substituted to leucine to make a human CLDN6 mutant comprising the same amino acid as human Claudin 9 at position 156. This human CLDN6 mutant was named as hCLDN6(Q156L) (SEQ ID NO: 53). Ba/F3 transfectant stably express hCLDN6(Q156L) was generated using similar method described in WO2008/087978. The established Ba/F3 transfectant was named BaF3_hCLDN6(Q156L). Binding activity of the generated CLDN6-TRABs against BaF3_hCLDN6(Q156L) was measured using the above mentioned FACS method and the results are shown in FIG. 1 and Table 3.

human CLDN3 = target: T2, human CLDN3 (human, UniProt O15551 1-220); test: as above
T2 construct: whole, on cells; also called hCLDN3; BaF3_hCLDN3
T2 sequence (looked up): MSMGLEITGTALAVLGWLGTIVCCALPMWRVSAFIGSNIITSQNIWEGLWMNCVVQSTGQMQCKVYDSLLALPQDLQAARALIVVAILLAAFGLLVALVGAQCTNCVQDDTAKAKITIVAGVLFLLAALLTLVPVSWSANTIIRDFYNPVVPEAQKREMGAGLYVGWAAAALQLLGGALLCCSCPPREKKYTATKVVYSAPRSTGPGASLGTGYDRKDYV
Procedure: as §1, §2

mouse CLDN4 = target: T3, mouse CLDN4 (mouse, UniProt O35054 1-210); test: as above
T3 construct: whole, on cells; also called mCLDN4; BaF3_mCLDN4
T3 sequence (looked up): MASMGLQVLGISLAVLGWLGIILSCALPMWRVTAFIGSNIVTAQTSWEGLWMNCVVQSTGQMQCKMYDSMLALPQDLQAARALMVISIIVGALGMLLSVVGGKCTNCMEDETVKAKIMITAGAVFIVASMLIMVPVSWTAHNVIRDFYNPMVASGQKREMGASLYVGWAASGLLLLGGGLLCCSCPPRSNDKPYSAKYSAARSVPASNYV
Procedure: as §1, §2

hCLDN6(Q156L) = target: T4, hCLDN6(Q156L) (human, UniProt P56747 1-220); test: as above
T4 construct: Stably expressed on Ba/F3 cells; also called human CLDN6 mutant; BaF3_hCLDN6(Q156L)
T4 chain: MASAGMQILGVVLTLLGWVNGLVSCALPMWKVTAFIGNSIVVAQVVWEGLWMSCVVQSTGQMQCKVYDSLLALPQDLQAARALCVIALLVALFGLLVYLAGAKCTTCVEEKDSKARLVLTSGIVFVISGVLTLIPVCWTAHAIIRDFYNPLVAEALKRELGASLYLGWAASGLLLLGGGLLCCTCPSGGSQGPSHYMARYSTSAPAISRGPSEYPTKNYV
Procedure: as §1, §2

human CLDN4 = target: T5, human CLDN4 (human, UniProt O14493 1-209); test: as above
T5 construct: whole, on cells; also called hCLDN4; BaF3_hCLDN4
T5 sequence (looked up): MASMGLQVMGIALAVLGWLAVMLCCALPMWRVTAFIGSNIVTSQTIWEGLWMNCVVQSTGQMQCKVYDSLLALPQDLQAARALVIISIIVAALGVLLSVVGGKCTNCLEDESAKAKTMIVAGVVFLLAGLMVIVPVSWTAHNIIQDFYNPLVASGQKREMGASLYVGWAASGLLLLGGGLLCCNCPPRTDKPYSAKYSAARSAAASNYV
Procedure: as §1, §2

mouse CLDN3 = target: T6, mouse CLDN3 (mouse, UniProt Q9Z0G9 1-219); test: as above
T6 construct: whole, on cells; also called mCLDN3; BaF3_mCLDN3
T6 sequence (looked up): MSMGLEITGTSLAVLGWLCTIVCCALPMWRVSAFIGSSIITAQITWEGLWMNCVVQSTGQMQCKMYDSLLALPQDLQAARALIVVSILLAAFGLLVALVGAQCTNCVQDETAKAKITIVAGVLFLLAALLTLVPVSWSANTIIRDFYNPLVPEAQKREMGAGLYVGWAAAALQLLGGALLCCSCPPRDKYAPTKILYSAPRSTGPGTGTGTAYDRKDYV
Procedure: as §1, §2

B1: CH01/CD3 (bispecific antibody, human IgG1, kappa, N297A)
heavy 1: EVKLVESGGGLVKPGGSLKLSCAASGFTFNSYTMSWVRQTPAKRLEWVVTISSGGGRTYYPDSVKGRFTISRDNARNTLYLQMSSLRSEDTAMYYCIRGDYRYDGFAYWGQGTLVTVSTASTKGPSVFPLAPSSKSTSGGTAALGCLVKDYFPEPVTVSWNSGALTSGVHTFPAVLQSSGLYSLSSVVTVPSSSLGTQTYICNVNHKPSNTKVDKKVEPKSCDKTHTCPPCPAPELRGGPKVFLFPPKPKDTLMISRTPEVTCVVVDVSHEDPEVKFNWYVDGVEVHNAKTKPREEQYASTYRVVSVLTVLHQDWLNGKEYKCKVSNKALPAPIEKTISKAKGQPREPQVYTLPPSREEMTKNQVSLTCLVKGFYPSDIAVEWESNGQPENNYKTTPPYLDSDGSFFLYSKLTVDKSRWQQGNVFSCSVMHEALHNHYTQESLSLSP
light 1: DIQMTQSPASLSASVGETVTITCRASENIDSYLAWYQQKQGKSPQLLVYASTLLVDGVPSRFSGSRSGTQFSLKINSLQSEDVARYYCQHYYSIPYTFGSGTKLEIKRTVAAPSVFIFPPSDEQLKSGTASVVCLLNNFYPREAKVQWKVDNALQSGNSQESVTEQDSKDSTYSLSSTLTLSKADYEKHKVYACEVTHQGLSSPVTKSFNRGEC
heavy 2: QVQLVESGGGVVQPGGSLRLSCAASGFTFSNAWMHWVRQAPGKGLEWVAQIKDKSQNYATYVAESVKGRFTISRADSKNSIYLQMNSLKTEDTAVYYCRYVHYAAGYGVDIWGQGTTVTVSSASTKGPSVFPLAPSSKSTSGGTAALGCLVKDYFPEPVTVSWNSGALTSGVHTFPAVLQSSGLYSLSSVVTVPSSSLGTQTYICNVNHKPSNTKVDKKVEPKSCDKTHTCPPCPAPELRGGPKVFLFPPKPKDTLMISRTPEVTCVVVDVSHEDPEVKFNWYVDGVEVHNAKTKPREEQYASTYRVVSVLTVLHQDWLNGKEYKCKVSNKALPAPIEKTISKAKGQPREPQVYTLPPSRKEMTKNQVSLTCLVKGFYPSDIAVEWESNGQPENNYKTTPPYLDSDGSFFLYSKLTVDKSRWQQGNVFSCSVMHEALHNHYTQKSLSLSP
light 2: DIVMTQSPLSLPVTPGEPASISCRSSQPLVHSNRNTYLHWYQQKPGQAPRLLIYKVSNRFSGVPDRFSGSGSGTDFTLKISRVEAEDVGVYYCGQGTQVPYTFGQGTKLEIKRTVAAPSVFIFPPSDEQLKSGTASVVCLLNNFYPREAKVQWKVDNALQSGNSQESVTEQDSKDSTYSLSSTLTLSKADYEKHKVYACEVTHQGLSSPVTKSFNRGEC
notes: Made by Fab arm exchange of the bivalent anti-CLDN6 antibody CH01 with the bivalent anti-CD3 antibody CD3-1; human IgG1 constant region; One anti-CLDN6 arm and one anti-CD3 arm; also called CLDN6-TRAB; CLDN6-targeted T-cell redirecting bispecific antibody
EC50 (read off the curve), Jurkat/NFAT-RE luciferase reporter, target cells HuH-7 (human CLDN6 [1]): ~0.09 nM | Geo-mean value of FACS (human CLDN6 [2]): 4480 | Geo-mean value of FACS (human CLDN3): 37 | Geo-mean value of FACS (mouse CLDN4): 31 | Geo-mean value of FACS (hCLDN6(Q156L)): 114 | Geo-mean value of FACS (human CLDN4): 51 | Geo-mean value of FACS (mouse CLDN3): 26
